This test concerns the target T1, HER2 on BT474 breast tumour cells (human, UniProt P04626 23-1255).
T1 construct: whole, on cells; also called HER2-positive BT474 cells
Nature of the test: flow cytometry, cross-linking of NK92MI and BT474 cells (data not shown). In general terms: Flow cytometry measures light scatter and fluorescence of single cells or particles in a stream.

B1: Z199 scFv anti-NKG2A.C4bp(beta).Fc[knob]/2D3 VHH anti-HER2.C4bp(beta).Fc[hole] bispecific pseudo-IgG (bispecific antibody)
chain 1: RSQVKLQQSGGGLVKPGGSLKLSCAASGFTFSSYAMSWVRQSPEKRLEWVAEISSGGSYTYYPDTVTGRFTISRDNAKNTLYLEISSLRSEDTAMYYCTRHGDYPRFFDVWGAGTTVTVSSGGGGSGGGGSGGGGSQIVLTQSPALMSASPGEKVTMTCSASSSVSYIYWYQQKPRSSPKPWIYLTSNLASGVPARFSGSGSGTSYSLTISSMEAEDAATYYCQQWSGNPYTFGGGTKLEIKRAAASGAGGGGSSGAGGSAGGGGSSGGGGSAGGGGSIQEAPKPECEKALLAFQESKNLCEAMENFMQQLKESGMTMEELKYSLELKKAELKAKLLEPKSCDKTHTCPPCPAPELLGGPSVFLFPPKPKDTLMISRTPEVTCVVVDVSHEDPEVKFNWYVDGVEVHNAKTKPREEQYNSTYRVVSVLTVLHQDWLNGKEYKCKVSNKALPAPIEKTISKAKGQPREPQVYTLPPCRDELTKNQVSLWCLVKGFYPSDIAVEWESNGQPENNYKTTPPVLDSDGSFFLYSALTVDKSRWQQGNVFSCSVMHEALHNHYTQKSLSLSPGK
chain 2: not shown
notes: also called Z199/2D3
With B1, the binding result is “binds”.

Values taken from US20240360189A1 (LUXEMBOURG INSTITUTE OF HEALTH LIH, published 2024).
